From US12539335B2, “Tricyclic polypeptide conjugated drug and use thereof” (CONJUSTAR (ZHUHAI) BIOLOGICS CO., LTD., priority 2021, dated 2026)
Structures can show the parent of a compound that is named as a salt. Starred links: 1 amine or outer side, 2 acyl side, 3 side chain; linkers in the order of their positions; H or OH if unused. Positions of bridges follow the written chain, without caps; N, C: chain ends. Non-standard residues stand in square brackets, D forms with d. Residues, ends and D or L forms follow the SMILES beside them. Chains are numbered I, II in the order given. *: point of attachment. TATA = O=C(CC[*:1])N1CN(C(=O)CC[*:2])CN(C(=O)CC[*:3])C1; Dolaproine = CO[C@@H]([C@@H]1CCCN1)[C@@H](C)C(=O)O; Dil = CC[C@H](C)[C@H](NC)[C@@H](CC(=O)O)OC; 1Nal = N[C@@H](Cc1cccc2ccccc12)C(=O)O; X2 = O=C(CCCC(=O)[*:2])NCCC(=O)[*:1]; PABC = O=C(OCc1ccc(N[*:1])cc1)[*:2]; X1 = C[C@@H](N*)[C@@H](O)c1ccccc1; Hyp = O=C(O)[C@@H]1C[C@@H](O)CN1; hArg = N=C(N)NCCCC[C@H](N)C(=O)O; Cit = NC(=O)NCCC[C@H](N)C(=O)O; Pen = CC(C)(S)[C@H](N)C(=O)O; NMeV = CN[C@H](C(=O)O)C(C)C; Sar = CNCC(=O)O

Assays:
[1] = Metabolic stability in hepatocytes, SD rats; type: in vitro ADME; conditions: Sprague-Dawley (SD), rat, hepatocytes (cryopreserved, suspension), 0.5×10^6 cells/mL
Protocol: Test Example 7: Metabolic Stability of the Compounds of the Present Invention in Hepatocytes from Mice, Rats, Cynomolgus Macaques, and Humans
To investigate the metabolic stability of the compounds of the present invention in hepatocytes from mice, rats, Cynomolgus macaques, and humans.
Incubations were performed in 96-well plates using an external extraction method. Several 96-well sample precipitation plates, designated T0, T15, T30, T60, T90, TO-MC, T90-MC, and blank matrix, were prepared, respectively. The recovery culture medium and incubation culture medium were removed in advance and placed in a 37° C. water bath for preheating. […]
At the end of the incubation at the corresponding time point, the incubation plates were removed, from which 25 μL of a compound mixture with the cells and a control compound mixture with the cells were removed and added to sample plates containing 125 μL of stop buffer, respectively. […] All samples were mixed uniformly and then analyzed by the LC-MS/MS method.
The concentration of the compound to be tested and the concentration of the control in the sample were semi-quantitatively determined by the liquid chromatography-tandem mass spectrometry (LC-MS/MS) method without a standard curve and quality control sample. […]

[2] = Metabolic stability in kidney S9, CD-1 mice; type: in vitro ADME; conditions: mouse; CD-1 mice kidney S9
Protocol: Test Example 8: Metabolic Stability of the Compounds of the Present Invention in Kidney S9 from Mice, Rats, Cynomolgus Macaques, and Humans
To investigate the metabolic stability of the compounds of the present invention in kidney S9 from mice, rats, Cynomolgus macaques, and humans.
Materials: Kidney S9 from CD-1 mice, SD rats, Cynomolgus macaques, and humans were purchased from BioIVT or XenoTech LLC and stored in a −80° C. refrigerator.
Experimental procedure: Eight 96-well plates, designated T0, T5, T15, T30, T45, T60, Blank, and NCF60, were prepared. The first six incubation plates corresponded to reaction time points of 0, 5, 15, 30, 45, and 60 minutes, respectively. No test sample or control compound was added to the Blank plate.
The T0, T5, T15, T30, T45, and T60 plates were added with a 2 μL working solution of the test sample (10 mM of a solution of the compound to be tested in DMSO, diluted to 100 μM with 100% acetonitrile) and 100 μL of a S9 working solution (kidney S9 protein concentration of 1.0 mg/mL), and the Blank plate was only added with the S9 working solution. The above incubation plates were then placed in a 37° C. water bath for pre-incubation for about 10 minutes.
At the end of the pre-incubation, 98 μL of an auxiliary enzyme working solution was added to each sample well except the TO plate to start the reaction. […]

Q: Which half-life at 1 μM [1] does the source give for `CC[C@H](C)[C@@H]([C@@H](CC(=O)N1CCC[C@H]1[C@H](OC)[C@@H](C)C(=O)N[C@H](C)[C@@H](O)c1ccccc1)OC)N(C)C(=O)[C@@H](NC(=O)[C@H](C(C)C)N(C)C(=O)OCc1ccc(NC(=O)[C@H](CCCNC(N)=O)NC(=O)[C@@H](NC(=O)CCCC(=O)NCCC(=O)N(C)CC(=O)N(C)CC(=O)N(C)CC(=O)N(C)CC(=O)N(C)CC(=O)N(C)CC(=O)N(C)CC(=O)N(C)CC(=O)N(C)CC(=O)N(C)CC(=O)N[C@H]2CCCCNC(=O)C[C@@H](C(=O)N[C@H]3CSCCC(=O)N4CN5CN(C4)C(=O)CCSC(C)(C)[C@H](NC(=O)[C@@H](CC(=O)O)NC(=O)[C@H](Cc4cccc6ccccc46)NC(=O)[C@@H]4CCCN4C3=O)C(=O)N[C@@H](CCSC)C(=O)N[C@@H](CCCCNC(=N)N)C(=O)N[C@@H](CC(=O)O)C(=O)N[C@@H](Cc3c[nH]c4ccccc34)C(=O)N[C@@H](CO)C(=O)N[C@@H]([C@@H](C)O)C(=O)N3CCC[C@H]3C(=O)N3C[C@H](O)C[C@H]3C(=O)N[C@@H](Cc3c[nH]c4ccccc34)C(=O)N[C@H](C(N)=O)CSCCC5=O)NC(=O)CN(C)C2=O)C(C)C)cc1)C(C)C` [Acetate salt of PDC_2] (I: [Sar][Sar][Sar][Sar][Sar][Sar][Sar][Sar][Sar][Sar]K[Sar]DCP[1Nal][dD][Pen]M[hArg]DWSTP[Hyp]WC-NH2 / II: V[Cit][PABC][NMeV]V[Dil][Dolaproine]-X1; lactam I:11-I:13; linker I:14-I:18-I:28 via TATA; linker I:N-II:N via X2) here?
A: > 3.61 h

Q: And the CLint scaled at 1 μM ([1]; read-out: CLint (liver))?
A: < 29.9 mL/min/kg

Q: What about the half-life at 1 μM [2] of the same molecule?
A: > 2.42 h

Q: And the microsomal CLint at 1 μM [2]?
A: < 9.6 µL/min/mg
